In article doi:10.1101/2025.03.04.641395:

How the values were obtained:
[1] = target: ForJ (Streptomyces formicae); test: mass photometry
[2] = target: ForJ (Streptomyces formicae); test: mass photometry; remark: listed apart in the source
[3] = target: ForJ (Streptomyces formicae); test: non-reducing SDS-PAGE
[4] = target: ForJ (Streptomyces formicae); test: non-reducing SDS-PAGE; remark: listed apart in the source

ForJ (natural protein)
stoichiometry N [1]: 4 | stoichiometry N [2]: 2 | stoichiometry N [3]: 2 | stoichiometry N [4]: 4
